Measured values as given in publication PMC4682845 (2015).

Biological target: […]-para-nitroanilide (TQ6-pNA) peptide substrate
Assay: ITC

B1: MERS-CoV main protease (M^pro), wild type, authentic N-terminus (enzyme)
chain: SGLVKMSHPSGDVEACMVQVTCGSMTLNGLWLDNTVWCPRHVMCPADQLSDPNYDALLISMTNHSFSVQKHIGAPANLRVVGHAMQGTLLKLTVDVANPSTPAYTFTTVKPGAAFSVLACYNGRPTGTFTVVMRPNYTIKGSFLCGSCGSVGYTKEGSVINFCYMHQMELANGTHTGSAFDGTMYGAFMDKQVHQVQLTDKYCSVNVVAWLYAAILNGCAWFVKPNRTSVVSFNEWALANQFTEFVGTQSVDMLAVKTGVAIEQLLYAIQQLYTGFQGKQILGSTMLEDEFTPEDVNMQIMGVVMQ
Kd: 20.3 µM
